In the supplement of paper PMC9170038:

Experiments:
[1] = tested on: K4 kissing-loop RNA reporter; experiment: apparent KD of K4 kissing-loop reporter; higher = weaker reporter binding; conditions: Eterna round: R107;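 further: bound reporter read as fluorescence of individual clusters on recovered sequencing chips by microscopy, with normalized cluster intensities fitted with a binding model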
Procedure: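 RNA-MaP round R107: designed RNA switches with theophylline, tryptophan, arginine or FMN aptamers are transcribed on-chip within common flanks. They are titrated with a labelled K4 kissing-loop RNA reporter in RNA-MaP buffer (100 mM Tris pH 7.5, 80 mM KCl, 4 mM MgCl2), without ligand or with the indicated ligand. Median apparent KD per design.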

MS2 coat protein = experiment: apparent KD of MS2 coat protein; designed switch direction (-1 OFF switch, 1 ON switch): -1; higher = weaker reporter binding
Outline: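 Stalled E. coli RNA polymerase transcribed designed RNA switches on Illumina chips, which were then titrated with SNAP-549-labelled MS2 coat protein, doubling from 0.7 or 1.5 nM to 3 µM. Steps lasted from 0.8–1.5 h at the lowest concentration to 10–20 min at the highest. The apparent KD is each design's median over clusters of curve-fitted normalised fluorescence.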

[2] = input ligand: theophylline 20 uM
[3] = input ligand: tryptophan 2.4 mM
[4] = input ligand: microRNA oligo, concentration not stated
[5] = Eterna round: R95, input ligand: microRNA oligo, concentration not stated
[6] = Eterna round: R95, input ligand: FMN 200 uM
[7] = Eterna round: R95, input ligand: none

Row | Sequence | apparent KD of MS2 coat protein (MS2 coat protein; input ligand: FMN 200 uM) | apparent KD of MS2 coat protein (MS2 coat protein; input ligand: none) | apparent KD of MS2 coat protein (MS2 coat protein; [5]) | further results
1 | AAGGGCGGGACUUCCUCGCCGGAUAGAGAUACCAGCCCUGCAAAGGGCCCUUGGCAGCUCACUGACCUCAGUGAUGUUGAGGUUC [Maanveri] |  |  |  | apparent KD of K4 kissing-loop reporter ([1]; input ligand: FMN 200 uM): 252 nM; apparent KD of K4 kissing-loop reporter ([1]; input ligand: arginine 13.2 mM): 210 nM; apparent KD of K4 kissing-loop reporter ([1]; input ligand: none): 234 nM; apparent KD of K4 kissing-loop reporter [1, 2]: 209 nM; apparent KD of K4 kissing-loop reporter [1, 3]: 223 nM
2 | UGAUAGGACAGAAGGAGCGGGAGUGAUGUUCCCAAAAUGGAAGGUCGACAAAGUCGACCCUCCCAGGUAGGUCGCUGUCCUAUCU [ArgBX 6 #SwitchBubble #StaticStem] |  |  |  | apparent KD of K4 kissing-loop reporter ([1]; input ligand: FMN 200 uM): 91.3 nM; apparent KD of K4 kissing-loop reporter ([1]; input ligand: arginine 13.2 mM): 101 nM; apparent KD of K4 kissing-loop reporter ([1]; input ligand: none): 99.6 nM; apparent KD of K4 kissing-loop reporter [1, 2]: 99.2 nM; apparent KD of K4 kissing-loop reporter [1, 3]: 86.7 nM
3 | AGUAGUUGGGCGGCCGCCACUGGAACAGCUUUGCCAAAGGCAGAGCACUAGAGUGAUGUUCUAGCUAGGACCGGGUCCAACUACA [whbob_SS_Tryp_B_t17] |  |  |  | apparent KD of K4 kissing-loop reporter ([1]; input ligand: FMN 200 uM): 588 nM; apparent KD of K4 kissing-loop reporter ([1]; input ligand: arginine 13.2 mM): 250 nM; apparent KD of K4 kissing-loop reporter ([1]; input ligand: none): 444 nM; apparent KD of K4 kissing-loop reporter [1, 2]: 252 nM; apparent KD of K4 kissing-loop reporter [1, 3]: 1220 nM
4 | GAUUACAACAGAGUGAUGUUCUGACUUUCUCGAGGACCGGUACGGCCGCCACUCGUUAAACAAAGUGGUUUGCCAAGGCCAACUU |  |  |  | apparent KD of K4 kissing-loop reporter ([1]; input ligand: FMN 200 uM): 139 nM; apparent KD of K4 kissing-loop reporter ([1]; input ligand: arginine 13.2 mM): 198 nM; apparent KD of K4 kissing-loop reporter ([1]; input ligand: none): 157 nM; apparent KD of K4 kissing-loop reporter [1, 2]: 208 nM; apparent KD of K4 kissing-loop reporter [1, 3]: 111 nM
5 | AAUAAUAAAGUCAGGAUAUCUAGAGCUGCGGCUCUAGAGAAGGGACAUGAGGAUCACCCAUGUCACUCAAUAAU [BmEx4/3-D3] (Eterna round: R97, puzzle: Brourd's mod of Exclusion 4) | 18.1 nM | 14.7 nM |  | 
6 | AUUAAACAUGUAGGAUAUGCGUGGCGAAGCUAUGCAGAAGGACAUGAGGAUCACCCAUGUAAAAGCGUCUGCGUACAGAUGCAA [Mat - Exclusion NG 1 - Mod of JL - D84] (Eterna round: R96, puzzle: Exclusion NG 1) | 468 nM | 38.9 nM |  | apparent KD of MS2 coat protein (MS2 coat protein; [4]): 28 nM
7 | UAUUUAUAGCAAGGAUAUGAUUAUUAUUAUUUAUCAGAAGGUGCACAUGAGGAUCACCCAUGUUUUAUAAUUUGUAAUUUAAUU [Title] (Eterna round: R96, puzzle: Exclusion NG 1) |  |  |  | apparent KD of MS2 coat protein (MS2 coat protein; [4]): 40.9 nM
8 | CCGGAUAUGCAGGAUAUCGAAUCGGAAACGAUUCGAGAAGGGUAUACAUGAGGAUCACCCAUGUGUCCUACCGG [Mat - Exclusion 6 - Eli Mod - D87] (puzzle: Exclusion 6) |  |  | 19.4 nM | 
9 | AGAUGCUCAAGUCGACAUGAGGAUCACCCAUGUACAAUUAACGAGGAUAUCCGAGAUAAAUAAUAGGAGAAGGCGUGAUCAUGA [Mat - Exclusion NG 3 - Mod of JL - D54] (Eterna round: R96, puzzle: Exclusion NG 3) | 66.2 nM | 470 nM |  | apparent KD of MS2 coat protein (MS2 coat protein; [4]): 110 nM
10 | ACAUGAGGAUCACCCAUGUCCGGCUGGUCCGUCUCGGCUGUCGAGGAUAUAGCUCGGUAUCCGCGCUAGAAGGCGGGAGCCGGA [Aenatbe mod 84] (Eterna round: R96, puzzle: Exclusion NG 3) | 45.3 nM | 44.4 nM |  | apparent KD of MS2 coat protein (MS2 coat protein; [4]): 29.1 nM
11 | GGUCUGCGAGGAUAUACAUGAGGAUCACCCAUGUGCGUGAUACUAGUGAGGUCGGUUGGUAGAAGGCGCGGACG [JL-ex3-2.08 salish99 mod] (puzzle: Exclusion 3) |  |  | 245 nM | apparent KD of MS2 coat protein (MS2 coat protein; [6]): 128 nM; apparent KD of MS2 coat protein (MS2 coat protein; [7]): 649 nM
12 | AGCAUGUUAGGAUAUGCCAAAAUUAACCACGACUCAGUGAUGCAGAAGGAACAUGAGGAUCACCCAUGUGCUCC [Eternabot (L1) Solution 16] (Eterna round: R97, puzzle: Exclusion 4) | 219 nM | 38.2 nM |  | 
13 | CGUUGAAUAGGAUAUACAUGAGGAUCACCCAUGUGAAAUUAUAGUGAGGAAAUGAAAAGUAGAAGGGUUUGACA [Mod of Mat 8 - Jieux - Exclusion 3] (Eterna round: R97, puzzle: Exclusion 3) | 27.6 nM | 30.4 nM |  | 
14 | UGACGUCAUGUCAGGAUAUAGGCGAUGCGUGUCUUCUAGAAGGGACAUGAGGAUCACCCAUGUAAACUUUUGGU [Eternabot (L1) Solution 56] (Eterna round: R97, puzzle: Brourd's mod of Exclusion 4) | 136 nM | 148 nM |  | 
15 | CUAUAAGGUGUUAGGAUAUCGGCUCGAGGUACUAGCGAGAAGGAACAUGAGGAUCACCCAUGUGGUCAUGAUUU [Eternabot (L2) Solution 60] (Eterna round: R97, puzzle: Brourd's mod of Exclusion 4) | 152 nM | 139 nM |  | 
16 | CUGGUCCGAGGAUAUAUGAUGUGAAACAUGAGGAUCACCCAUGUAAUAUUAUGGAAGAAAAUAGAAGGCGGACUAG [Mat - Exclusion 5 - JL mod - D38] (puzzle: Exclusion 5) |  |  | 64.3 nM | apparent KD of MS2 coat protein (MS2 coat protein; [6]): 37.2 nM; apparent KD of MS2 coat protein (MS2 coat protein; [7]): 71.5 nM
17 | AAGACAAAUGUAGGAUAUGCGUGGCGAAGCUAUGCAGAAGGACAUGAGGAUCACCCAUGUCUUAGCGUCUGCGUACAGAUGCUA [JL eng1 1.35 mod 9] (Eterna round: R96, puzzle: Exclusion NG 1) |  |  |  | apparent KD of MS2 coat protein (MS2 coat protein; [4]): 12.1 nM

Row | Sequence | apparent KD of MS2 coat protein (MS2 coat protein; input ligand: FMN 200 uM) | apparent KD of MS2 coat protein (MS2 coat protein; input ligand: none) | apparent KD of MS2 coat protein (MS2 coat protein; [5]) | further results
18 | AUAUAGUCAGGAUAUCGAAGUGAGUGUUGGUUUGUAAGGUACGAGAAGGGACAUGAGGAUCACCCAUGUAGGAA [JR_Exclusion4)Sub003] (puzzle: Exclusion 4) |  |  | 42.7 nM | 
19 | AAGAACUUAGGAUAUACAUGAGGAUCACCCAUGUAGCUUCACUUGGGCCUGAGCCCGUGUAGAAGGAAGAAAAU [Arge] (puzzle: Exclusion 3) |  |  | 66 nM | 
20 | AAAUUAGCAAGUAGGUCCGACAUGAGGAUCACCCAUGUUAUCUGAAAUAACGCUGCAUGAUUGUGCGCUCGUCUUAG [Sensor-V1 #8] (Eterna round: R97, puzzle: Sensor, turn-off variant 1) | 69.1 nM | 73.1 nM |  | 
21 | UAUAUGUGAGGAUAUCAGGUGUGCUAGCGUACUGGUACAUCUGAGAAGGCACAUGAGGAUCACCCAUGUUUCUU [JL-ex4-3.24 Brourd mod] (puzzle: Exclusion 4) |  |  | 24.4 nM | 
22 | AUAUAGUCAGGAUAUACAUGAGGAUCACCCAUGUGGUAGUAGAUACAGUAGAGAUAGAGUAGAAGGGACGAUGA [EX3 #24] (Eterna round: R97, puzzle: Exclusion 3) | 113 nM | 31 nM |  | 
23 | UGAUCAGACCGAGGAUAUACAUGGAGGACGCACGUGAGUGCGUCCACUACAUGAGGAUCACCCAUGUAGAAGGCGGUCUGAUCU [JL ENG2 1.92] (Eterna round: R96, puzzle: Exclusion NG 2) | 1100 nM | 144 nM |  | apparent KD of MS2 coat protein (MS2 coat protein; [4]): 130 nM
24 | ACUUAUUGAGGAUAUACAGAAAAUUACAUGAGGAUCACCCAUGUUCUUCAAUGUAUAUAUGUAGAAGGCAGAAGAA [JL-ex5-4.26 Malcolm mod] (Eterna round: R97, puzzle: Exclusion 5) | 29.3 nM | 12.9 nM |  | 
25 | GAUUAUGCGAGCUUUAGGGACAUGAGGAUCACCCAUGUUCGUCUUAUUAGUCUAGGUACACUAACAUACCUAAAUCU [JMF 18] (puzzle: Sensor v3, turn-off variant 1) |  |  | 38.8 nM | apparent KD of MS2 coat protein (MS2 coat protein; [6]): 21.3 nM; apparent KD of MS2 coat protein (MS2 coat protein; [7]): 21.9 nM
26 | GUAAGGCAUCUAGGAUAUAGUAUACGGCGAACAUGAGGAUCACCCAUGUGUCCGAAUGCGGCGAGCUAGAAGGAGAAAUUGCCC [Enuszarima] (Eterna round: R96, puzzle: Exclusion NG 2) | 51.4 nM | 33.4 nM |  | apparent KD of MS2 coat protein (MS2 coat protein; [4]): 25.4 nM
27 | AUAUUACGAGGAUAUCGUUUUUUUCACAUGAGGAUCACCCAUGUUAUCCAUGUUUCGUUUCGAGAAGGCGUAAGUU [JR_E5_Sub070] (puzzle: Exclusion 5) |  |  | 46.9 nM | 
28 | AUCGGCUCAGUCAGGAUAUGAUUGAAUCGUUGCAAUUAGAAGGGACAUGAGGAUCACCCAUGUGCGGUGCGGUC [Eternabot (L1) Solution 27] (Eterna round: R97, puzzle: Brourd's mod of Exclusion 4) | 178 nM | 169 nM |  | 
29 | UUUUACGAAGGAUAUACAUUUUUUUUAUUAUUUUCAUUAUUACAUGAGGAUCACCCAUGUAGAAGGUCGAUUUU [My Design] (puzzle: Exclusion 2) |  |  | 27.7 nM | 
30 | CCGCAAAUGCAGGAUAUCGUAUCGGAUACGAUACGAGAAGGGCGAACAUGAGGAUCACCCAUGUGUCCUAGCGG [Fiskers Ex 6 - 40] (puzzle: Exclusion 6) |  |  | 40.3 nM | apparent KD of MS2 coat protein (MS2 coat protein; [6]): 34.7 nM; apparent KD of MS2 coat protein (MS2 coat protein; [7]): 51.6 nM
31 | UUUAAUUUUUUUUUUUUACAAGCUUUUUGCUCGUCUUAUACAUGAGGAUCACCCAUGUAGAUGGGAAAUGAAUUAUC [JMF 98] (puzzle: Sensor v3, turn-off variant 2) |  |  | 144 nM | apparent KD of MS2 coat protein (MS2 coat protein; [6]): 26.1 nM; apparent KD of MS2 coat protein (MS2 coat protein; [7]): 22.7 nM
32 | UGUUCGCGAGGAUAUGCAUUCGAGUCCAUUACGUGUCUGGGACUUGAGGAUCACCCAAGUAGAAGGCGUCUCAC [salish99_ex2_r4_645] (Eterna round: R97, puzzle: Exclusion 2) | 115 nM | 122 nM |  | 
33 | AAUAACAAGCAGAUCCUAAACAUGAGGAUCACCCAUGUGCUCGUCUUGUAAAGUACUAUCACGAAAGUGAUAGUACA [Sensor 3, v1 - 59] (puzzle: Sensor v3, turn-off variant 1) |  |  | 186 nM | apparent KD of MS2 coat protein (MS2 coat protein; [6]): 67.5 nM; apparent KD of MS2 coat protein (MS2 coat protein; [7]): 76.5 nM
34 | UCUCGUUGGCAAGGAUAUCCUACAUUGUUCUGGCCCGGGCAUGCUACAUGAGGAUCACCCAUGUGGGAGAAGGUGCGCCAUUGC [Design 24] (Eterna round: R96, puzzle: Exclusion NG 2) | 80.9 nM | 65.2 nM |  | apparent KD of MS2 coat protein (MS2 coat protein; [4]): 49.7 nM
